Measured values taken from the supplement of paper PMC10126150.
± gives the standard deviation of the averaged measurements.

Test system: ATP
Assay: switch fluorescence ratio, 500 uM ATP over buffer (Cy3 cluster intensity, sum of 5 cycles each) (fold (ratio)); higher = stronger signal-on switching upon ATP binding; sequences stand for … in TCGTCGGCAGCGTCAGATGTGTATAAGAGACAGTTTTTTTTTTTTTTTTTTTTTTTTT…TC
Conditions: aptamer strand: ATP DNA aptamer (quencher-CACCTGGGGGAGTATTGCGGAGGAAGG + anchor), 100 nM annealed; ATP concentration: 500 uM
Summary of the method: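 Values give the fluorescence ratio for each switch-domain sequence, averaged from per-cluster ratios of summed target-cycle to summed buffer-cycle Cy3 intensity. The Cy3-labelled switching-strand clusters sat on a modified Illumina MiSeq flow-cell, were annealed to 100 nM quencher-labelled ATP aptamer, and were imaged in selection buffer, then after 15 min with 500 uM ATP at 22 °C. Five cycles ran with NaOH stripping and re-annealing between them, and clusters outside 100-1000 RFU were excluded.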
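Also: ATP exposure 15 min at 22 °C before imaging.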

Row | Sequence | switch fluorescence ratio
1 | ACATAATGTG | 1.06 ± 0.013
2 | ACATAGGGCT | 0.987 ± 0.04
3 | ACATAGTGCT | 1.004 ± 0.0077
4 | ACATATATGA | 1.06 ± 0.031
5 | ACATATGGGT | 1.01 ± 0.039
6 | ACATCAGAAT | 1.01 ± 0.028
7 | ACATCATACG | 1.233 ± 0.01
8 | ACATCCAACG | 1.12 ± 0.028
9 | ACATCCGGAC | 1.343 ± 0.011
10 | ACATCCGTCG | 1.06 ± 0.022
11 | ACATCCTACT | 1.15 ± 0.041
12 | ACATCGACTG | 1.02 ± 0.048
13 | ACATCGTGTT | 0.977 ± 0.033
14 | ACATCTCGAT | 0.996 ± 0.015
15 | ACATGAACCT | 2.14 ± 0.077
16 | ACATGACGGT | 1.06 ± 0.027
17 | ACATGCACGG | 1.268 ± 0.0013
18 | ACATGCGGTG | 1.002 ± 0.0033
19 | ACATGGCTAA | 1.08 ± 0.068
20 | ACATGGGTGG | 0.962 ± 0.051
21 | ACATGGTAGT | 0.97 ± 0.041
22 | ACATGGTTAG | 0.987 ± 0.03
23 | ACATGTCTGG | 1.001 ± 0.0016

Row | Sequence | switch fluorescence ratio
24 | ACATGTGCGT | 1.004 ± 0.01
25 | ACATTAGTAG | 1.02 ± 0.033
26 | ACATTAGTTA | 1.05 ± 0.033
27 | ACATTATATG | 1.01 ± 0.043
28 | ACATTCGACC | 1.11 ± 0.062
29 | ACATTGGGAT | 0.998 ± 0.022
30 | ACATTGTACG | 1.09 ± 0.019
31 | ACATTTTTAG | 1.01 ± 0.013
32 | ACCAAAAATG | 1.1 ± 0.13
33 | ACCAACTCAG | 1.24 ± 0.037
34 | ACCAAGTATC | 1.04 ± 0.036
35 | ACCAAGTTCA | 1.02 ± 0.014
36 | ACCAAGTTGG | 0.993 ± 0.016
37 | ACCAGCTTTC | 1.16 ± 0.015
38 | ACCAGGACTA | 1.038 ± 0.0017
39 | ACCAGGGGGG | 1.07 ± 0.058
40 | ACCAGGTGGT | 1.78 ± 1.1
41 | ACCATAGAAT | 1.009 ± 0.0094
42 | ACCATATGGA | 1.02 ± 0.064
43 | ACCATCAAGG | 0.9815 ± 0.0016
44 | ACCATTAATT | 0.991 ± 0.029
45 | ACCATTGTGA | 0.998 ± 0.014
46 | ACCATTTGTC | 1.06 ± 0.094

Row | Sequence | switch fluorescence ratio
47 | ACCCATGAAG | 0.989 ± 0.015
48 | ACCCGAGTTT | 1 ± 0.018
49 | ACCCGGACCT | 1.34 ± 0.059
50 | ACCCGGCTTA | 1.19 ± 0.22
51 | ACCCTAGACG | 1.03 ± 0.045
52 | ACCCTGCAGA | 1.06 ± 0.0064
53 | ACCCTGGAAC | 1.045 ± 0.0039
54 | ACCCTGTTGG | 1.01 ± 0.029
55 | ACCCTTATAG | 1.018 ± 0.0093
56 | ACCGAGCATG | 1.36 ± 0.1
57 | ACCGAGTTCT | 0.99 ± 0.057
58 | ACCGATCTCA | 1.048 ± 0.0089
59 | ACCGCATAGG | 1.0484 ± 4.5e-05
60 | ACCGCATCGT | 1.21 ± 0.027
61 | ACCGCGTGGG | 1.04 ± 7.3e-05
62 | ACCGGAGAGC | 1.1 ± 0.18
63 | ACCGGAGGGC | 0.9905 ± 0.0044
64 | ACCGGCACGG | 0.9679 ± 0.0037
65 | ACCGGGCCCT | 1.008 ± 0.0093
66 | ACCGGGCGCC | 0.967 ± 0.027
67 | ACCGGGGTGC | 1.612 ± 0.0063
68 | ACCGGTTACC | 1.09 ± 0.029
69 | ACCGGTTACG | 1.027 ± 0.0055

Row | Sequence | switch fluorescence ratio
70 | ACCGTATTTG | 1.119 ± 0.0047
71 | ACCGTCCCCA | 1.26 ± 0.11
72 | ACCGTGATGT | 1.08 ± 0.024
73 | ACCGTGCTTA | 1.01 ± 0.032
74 | ACCGTTGGGG | 1.04 ± 0.02
75 | ACCTAATGTT | 1.02 ± 0.016
76 | ACCTAGCTCC | 1.71 ± 0.056
77 | ACCTAGGGAG | 1.05 ± 0.02
78 | ACCTATCCGG | 1.03 ± 0.017
79 | ACCTATCTTG | 1.03 ± 0.016
80 | ACCTATTAGA | 1.01 ± 0.022
81 | ACCTCGTTTC | 1.02 ± 0.018
82 | ACCTGCGGGG | 1.01 ± 0.023
83 | ACCTGGCACA | 1.09 ± 0.012
84 | ACCTGGGTAT | 1.01 ± 0.049
85 | ACCTTAAAGA | 0.9915 ± 0.005
86 | ACCTTAATTA | 1.1 ± 0.044
87 | ACCTTATAAT | 1.025 ± 0.0092
88 | ACCTTTTAGT | 1.04 ± 0.018
89 | ACGAAAAGTG | 1.05 ± 0.072
90 | ACGAAAATTT | 1.05 ± 0.13
91 | ACGAAATAGG | 1.07 ± 0.035
92 | ACGAAATGTT | 0.988 ± 0.021

Row | Sequence | switch fluorescence ratio
93 | ACGAACGGGG | 1.27 ± 0.1
94 | ACGAAGATTA | 1.03 ± 0.014
95 | ACGAAGATTT | 1.03 ± 0.066
96 | ACGAAGGGAG | 1.02 ± 0.031
97 | ACGAAGTTTT | 1.02 ± 0.0028
98 | ACGACCGGCA | 1.11 ± 0.098
99 | ACGACCTTGT | 1.03 ± 0.018
100 | ACGACGGGGG | 1.2 ± 0.23
101 | ACGACTCCCG | 1.109 ± 0.0044
102 | ACGACTGTAG | 1.02 ± 0.029
103 | ACGACTTTTG | 0.995 ± 0.042
104 | ACGAGACGAC | 1.06 ± 0.023
105 | ACGAGACGC | 1.16 ± 0.031
106 | ACGAGATGAC | 1.05 ± 0.067
107 | ACGAGCCATG | 1.1 ± 0.015
108 | ACGAGGGATG | 1.01 ± 0.029
109 | ACGAGGGGAA | 1.015 ± 0.0057
110 | ACGAGGGGGC | 1.24 ± 0.34
111 | ACGAGGTGGG | 0.987 ± 0.017
112 | ACGAGGTTTT | 1.03 ± 0.042
113 | ACGAGTTCGC | 1.04 ± 0.025
114 | ACGATAATCG | 0.996 ± 0.008
115 | ACGATCAGCA | 1.05 ± 0.047

Row | Sequence | switch fluorescence ratio
116 | ACGATCGGGC | 1.06 ± 0.05
117 | ACGATCTCCC | 1.31 ± 0.098
118 | ACGATCTTGC | 1.02 ± 0.035
119 | ACGATGTACT | 1.1 ± 0.013
120 | ACGATGTTGG | 0.994 ± 0.023
121 | ACGATTATGC | 1.04 ± 0.11
122 | ACGATTTTTC | 0.974 ± 0.056
123 | ACGCAGCTGT | 1.379 ± 0.0027
124 | ACGCAGTTCC | 1.151 ± 0.0075
125 | ACGCATTACA | 3.9 ± 1.6
126 | ACGCCAATGT | 1.34 ± 0.076
127 | ACGCCACATT | 1.55 ± 0.091
128 | ACGCCAGCTA | 1.137 ± 0.004
129 | ACGCCCTTTT | 1.05 ± 0.052
130 | ACGCCGGGGG | 1.01 ± 0.031
131 | ACGCCGGGGT | 1.3 ± 0.51
132 | ACGCGCCTGG | 1.05 ± 0.043
133 | ACGCGCGTCG | 1 ± 0.063
134 | ACGCGGCGAT | 1.08 ± 0.026
135 | ACGCGGGTTT | 1.02 ± 0.02
136 | ACGCTCATGT | 1.05 ± 0.013
137 | ACGCTGCCGG | 1.1 ± 0.057
138 | ACGGAAATGT | 1.18 ± 0.1

Row | Sequence | switch fluorescence ratio
139 | ACGGACGCCA | 1.21 ± 0.019
140 | ACGGAGGCAT | 1.31 ± 0.024
141 | ACGGAGGGAT | 1.32 ± 0.032
142 | ACGGAGTAAA | 0.99939 ± 0.00086
143 | ACGGATGTTT | 0.997 ± 0.022
144 | ACGGATTGAA | 1.003 ± 0.0058
145 | ACGGATTTAG | 1.024 ± 0.01
146 | ACGGCATTTC | 1.28 ± 0.047
147 | ACGGCCAAGG | 1.05 ± 0.031
148 | ACGGCGCTTG | 1.051 ± 0.0053
149 | ACGGCTACGG | 1.02 ± 0.018
150 | ACGGGAGTGC | 1.03 ± 0.046
151 | ACGGGATGTG | 0.978 ± 0.016
152 | ACGGGATTTC | 1.05 ± 0.028
153 | ACGGGCAACG | 0.9743 ± 0.0065
154 | ACGGGCACTT | 1.12 ± 0.041
155 | ACGGGCATCG | 1.02 ± 0.032
156 | ACGGGCCTTC | 1.03 ± 0.012
157 | ACGGGCTTAG | 1.01 ± 0.016
